Results taken from article PMC3584020.

Target: LexA-PRAME, P78395
Assay: yeast two hybrid
Settings: chain shown with the change; LexA-PRAME (1-509); β-galactosidase activity normalised to amount of protein in the extracts; parent: est. 160; read off a plot

LexA-PRAME, P78395, sequence (P78395 whole entry): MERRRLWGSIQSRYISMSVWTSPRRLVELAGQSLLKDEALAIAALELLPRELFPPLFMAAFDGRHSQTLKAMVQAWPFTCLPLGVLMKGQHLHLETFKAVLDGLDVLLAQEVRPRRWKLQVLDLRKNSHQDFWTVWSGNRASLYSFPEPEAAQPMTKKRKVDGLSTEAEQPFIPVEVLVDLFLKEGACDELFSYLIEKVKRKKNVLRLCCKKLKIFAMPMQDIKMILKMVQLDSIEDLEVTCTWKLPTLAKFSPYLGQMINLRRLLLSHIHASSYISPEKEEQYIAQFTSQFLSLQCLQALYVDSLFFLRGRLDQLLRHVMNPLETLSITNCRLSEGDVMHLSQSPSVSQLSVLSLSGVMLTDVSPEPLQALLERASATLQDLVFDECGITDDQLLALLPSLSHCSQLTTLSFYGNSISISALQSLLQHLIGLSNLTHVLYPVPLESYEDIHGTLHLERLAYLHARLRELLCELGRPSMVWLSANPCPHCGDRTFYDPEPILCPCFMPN

- response (Units β-Galactosidase): 5
B1: GAL4 AD-fused C. elegans ELC (wELC) L47D; L49D; Y88D; Y91D (protein)
chain: MADQNNAIQCDQDAAQPKQYGGIEGPTSQYVKLVSSDDHEFIIKREDADTSGTIRAMLSGPGVYAENESNVVYFREIPSHVLQKVCQDFADKVRYTHAATEIPEFPIPPDVALELLMAANFLDC
